Patent US20240409658A1 (Seagen, published 2024)
Read-outs that look alike come from different tables or passages of the source.

Tests used:
[1] = target: human CD228 (R&D Systems Custom02; Lot DCWR021505A) (human) (UniProt P08582); test: ELISA on plate-coated human CD228, pH 6.3
[2] = target: human CD228 (R&D Systems Custom02; Lot DCWR021505A) (human) (UniProt P08582); test: ELISA on plate-coated human CD228, pH 7.1
[3] = target: human CD228 (R&D Systems Custom02; Lot DCWR021505A) (human) (UniProt P08582); test: ELISA on plate-coated human CD228, pH 5.1
[4] = target: human CD228 (R&D Systems Custom02; Lot DCWR021505A) (human) (UniProt P08582); test: ELISA on plate-coated human CD228, pH 7.4
[5] = target: human CD228 (R&D Systems Custom02; Lot DCWR021505A) (human) (UniProt P08582); test: ELISA on plate-coated human CD228, pH 7.5
[6] = target: human CD228 (R&D Systems Custom02; Lot DCWR021505A) (human) (UniProt P08582); test: ELISA on plate-coated human CD228, pH 5.9
[7] = target: human CD228 (R&D Systems Custom02; Lot DCWR021505A) (human) (UniProt P08582); test: ELISA on plate-coated human CD228, pH 4
[8] = target: human CD228 (R&D Systems Custom02; Lot DCWR021505A) (human) (UniProt P08582); test: ELISA on plate-coated human CD228, pH 5.6
[9] = target: human CD228 (R&D Systems Custom02; Lot DCWR021505A) (human) (UniProt P08582); test: ELISA on plate-coated human CD228, pH 6.66
[10] = target: human CD228 (R&D Systems Custom02; Lot DCWR021505A) (human) (UniProt P08582); test: ELISA on plate-coated human CD228, pH 4.55
[11] = target: T1, human CD228 on the cell surface (RPMI-7951 cells stably expressing human CD228; A375 cells) (human, UniProt P08582 20-709); test: competition flow cytometry, RPMI-7951 cells stably expressing human CD228; competitor 5 nM AF647-labeled mL49; unlabeled antibody 0.06-1000 nM
T1 construct: whole, on cells; also called p97; melanotransferrin
T1 sequence (looked up): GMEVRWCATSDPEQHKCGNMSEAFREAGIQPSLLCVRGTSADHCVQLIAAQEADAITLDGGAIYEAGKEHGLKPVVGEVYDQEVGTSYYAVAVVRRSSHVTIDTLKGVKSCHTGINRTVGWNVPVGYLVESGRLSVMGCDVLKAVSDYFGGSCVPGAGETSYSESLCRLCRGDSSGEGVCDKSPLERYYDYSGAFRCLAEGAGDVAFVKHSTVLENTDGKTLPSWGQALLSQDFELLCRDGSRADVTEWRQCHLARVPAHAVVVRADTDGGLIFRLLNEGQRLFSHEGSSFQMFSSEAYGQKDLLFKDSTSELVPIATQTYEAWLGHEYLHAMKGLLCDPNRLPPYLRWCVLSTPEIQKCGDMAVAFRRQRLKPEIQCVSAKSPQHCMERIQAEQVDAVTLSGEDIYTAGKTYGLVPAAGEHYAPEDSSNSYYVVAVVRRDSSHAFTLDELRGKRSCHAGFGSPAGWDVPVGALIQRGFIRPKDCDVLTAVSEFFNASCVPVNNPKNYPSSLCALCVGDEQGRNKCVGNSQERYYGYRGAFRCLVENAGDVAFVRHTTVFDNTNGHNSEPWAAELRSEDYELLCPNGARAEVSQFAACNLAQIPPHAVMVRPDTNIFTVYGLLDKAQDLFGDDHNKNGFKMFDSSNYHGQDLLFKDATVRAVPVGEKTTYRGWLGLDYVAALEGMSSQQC
Method: (§1) Binding curves for each resulting antibody was determined by a competition binding assay. Briefly, 1×10⁵ RPMI-7951 cells stably expressing human CD228 were aliquoted per well of a 96-well v-bottom plates on ice. […] Cells were pelleted and washed 3 times with PBS/BSA. The cells were pelleted and resuspended in 125 μL of PBS/BSA. Fluorescence was analyzed by flow cytometry, using percent of saturated fluorescent signal to determine percent labeled murine CD228 mAb bound.

[12] = target: T1, human CD228 on the cell surface …; test: as above; remark: listed apart in the source
Method: as §1

[13] = target: T1, human CD228 on the cell surface …; test: as above; remark: listed apart in the source
Method: as §1

[14] = target: T1, human CD228 on the cell surface …; test: as above; remark: listed apart in the source
Method: as §1

[15] = target: T1, human CD228 on the cell surface …; test: as above; remark: listed apart in the source
Method: as §1

[16] = target: T1, human CD228 on the cell surface …; test: as above; remark: listed apart in the source
Method: as §1

[17] = target: T2, human CD228 (R&D Systems Custom02; Lot DCWR021505A) (human, UniProt P08582 20-709, limits assumed); test: ELISA on plate-coated human CD228, pH 6.66
T2 sequence (looked up): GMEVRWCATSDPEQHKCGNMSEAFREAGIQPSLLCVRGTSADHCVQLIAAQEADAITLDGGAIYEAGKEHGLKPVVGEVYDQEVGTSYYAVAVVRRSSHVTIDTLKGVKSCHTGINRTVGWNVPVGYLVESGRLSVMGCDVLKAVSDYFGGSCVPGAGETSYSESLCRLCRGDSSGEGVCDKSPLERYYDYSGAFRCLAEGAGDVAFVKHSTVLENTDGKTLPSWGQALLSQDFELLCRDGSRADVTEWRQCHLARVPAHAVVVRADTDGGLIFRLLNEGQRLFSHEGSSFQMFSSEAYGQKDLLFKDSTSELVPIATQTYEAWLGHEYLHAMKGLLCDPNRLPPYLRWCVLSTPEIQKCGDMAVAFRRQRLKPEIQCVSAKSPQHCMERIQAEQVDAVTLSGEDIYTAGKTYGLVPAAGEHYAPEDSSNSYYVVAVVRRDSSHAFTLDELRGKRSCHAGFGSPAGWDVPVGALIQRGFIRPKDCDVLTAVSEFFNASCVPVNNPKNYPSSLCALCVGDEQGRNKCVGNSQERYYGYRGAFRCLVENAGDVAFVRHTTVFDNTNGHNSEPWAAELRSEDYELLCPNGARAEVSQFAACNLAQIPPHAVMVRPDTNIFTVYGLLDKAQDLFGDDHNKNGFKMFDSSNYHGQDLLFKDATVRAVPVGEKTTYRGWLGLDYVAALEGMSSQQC
Method: (§2) The ability of various anti-CD228 ADCs to bind to CD228 was evaluated at pH values ranging from 4 to 7.5 using a standard ELISA protocol. Briefly, 100 ng of human CD228 (R&D Systems Custom02; Lot DCWR021505A) or BSA (Sigma; Catalog No. A7030-100G) were diluted in PBS and added to each well overnight at 4° C. Plates were then washed three times with PBS-T (EMD Millipore; Catalog No. 5246531EA). After washing, plates were blocked with 3% (w/v) BSA in PBS-T for 1 hour at room temperature. Excess blocking buffer was then removed and the primary antibody was added in 3-fold dilutions in diluent buffer (0.15M citrate-phosphate buffer pH 4.0-7.5) starting at an antibody concentration of 60 nM. After incubating for 1 hour at room temperature, the plates were washed 3 times and then incubated with secondary antibody (Goat anti-human IgG Fc-specific HRP-conjugated, Jackson ImmunoResearch code #109-035-098) in PBS-T with 1% BSA. After incubating for 30 minutes at room temperature, plates were washed 3 times. 100 μl TMB substrate (Life Technologies; Cat #002023) was then added to each well. After incubating 10 minutes at room temperature, 100 μl H2SO4 was added to each well to stop the reaction, plates were covered with clear plate seal and read on an Envision at […]. pH-dependent binding for hL49, cL235, CD228Ab1, CD228Ab2 and CD228Ab3, CD228Ab4 are shown in FIG. 34A-34F.

[18] = target: T1, human CD228 on the cell surface …; test: saturation binding by flow cytometry on RPMI-7951 cells stably expressing human CD228; apparent KD
Method: (§3) The KD for each resulting antibody was then determined by a saturation binding assay. Briefly, 1×10⁵ RPMI-7951 cells stably expressing human CD228 were aliquoted per well of a 96-well v-bottom plates. Each CD228 antibody was added in concentrations ranging from 0.05 pM to 340 nM and incubated on ice for 60 minutes. Cells were pelleted and washed 3× with PBS/BSA followed by addition of 10 ug/ml of a PE labeled anti-human IgG goat secondary antibody and incubated on ice for an additional 60 minutes. Cells were pelleted and washed 3× with PBS/BSA and resuspended in 125 μL of PBS/BSA. Fluorescence was analyzed by flow cytometry, using percent of saturated fluorescent signal to determine percent bound and to subsequently calculate apparent KD. The binding curves for recombinant human anti-CD228 antibodies are shown in FIG. 13 and the KD for cL49ec (chimeric LA9 with an S239C mutation in the […] constant region), hL49 HALA G1, hL49 HALB G1, and hL49 HALC G1 are shown in Table 8. The antibody called “HALC,” “hL49,” or “hL49-HALC” which comprises heavy chain “HA” and the light chain “LC” was selected for use in all other experiments.

[19] = target: T2, human CD228 (R&D Systems Custom02; Lot …); test: ELISA on plate-coated human CD228, pH 7.4
Method: as §2

[20] = target: T2, human CD228 (R&D Systems Custom02; Lot …); test: ELISA on plate-coated human CD228, pH 6.3
Method: as §2

[21] = target: T2, human CD228 (R&D Systems Custom02; Lot …); test: ELISA on plate-coated human CD228, pH 5.9
Method: as §2

[22] = target: T1, human CD228 on the cell surface …; test: saturation binding by flow cytometry, RPMI-7951 cells stably expressing human CD228; PE anti-human IgG secondary; row 'ug/mL' of the drawn table headed 'kD'
Method: as §3

[23] = target: T2, human CD228 (R&D Systems Custom02; Lot …); test: ELISA on plate-coated human CD228, pH 7.5
Method: as §2

[24] = target: T2, human CD228 (R&D Systems Custom02; Lot …); test: ELISA on plate-coated human CD228, pH 5.6
Method: as §2

[25] = target: T2, human CD228 (R&D Systems Custom02; Lot …); test: ELISA on plate-coated human CD228, pH 7.1
Method: as §2

cL235 (antibody)
EC50 [1]: 0.749 nM
EC50 [2]: 0.724 nM
EC50 [3]: 0.756 nM
EC50 [4]: 0.767 nM
EC50 [5]: 0.694 nM
EC50 [6]: 0.838 nM
EC50 [7]: 0.809 nM
EC50 [8]: 0.74 nM
EC50 [9]: 0.757 nM
EC50 [10]: 0.727 nM

B1: mouse antibody L49 (mL49), AlexaFluor-647 labeled parental murine CD228 mAb (antibody, mouse IgG1, V domains shown)
VH: EVQLQESGPSLVKPSQTLSLTCSVTGDSITSGYWNWIRKFPGNKLEYMGYISDSGITYYNPSLKSRISITRDTSKNQYYLQLNFVTAEDTATYNCARRTLATYYAMDYWGQGTSVTVSS
VL: DFVMTQTPLSLPVSLGDQASISCRASQSLVHSNGNTYLHWYLQKPGQSPKLLIYRVSNRFSGVPDRFSGSGSGTDFTLKISRVEAEDLGVYFCSQSTHVPPTFGGGTKLEIK
notes: also called Mu L49
IC50 (read off the curve) [11]: 10 to 20 nM
IC50 (read off the curve) [12]: 10 to 20 nM
IC50 (read off the curve) [13]: 10 to 20 nM
IC50 (read off the curve) [14]: 10 to 20 nM
IC50 (read off the curve) [15]: 10 to 20 nM
IC50 (read off the curve) [16]: 10 to 20 nM

B2: hL49 HALC G1 (antibody, human IgG1, kappa, V domains shown)
VH: QVQLQESGPGLVKPSETLSLTCTVSGDSITSGYWNWIRQPPGKGLEYIGYISDSGITYYNPSLKSRVTISRDTSKNQYSLKLSSVTAADTAVYYCARRTLATYYAMDYWGQGTLVTVSS
VL: DFVMTQSPLSLPVTLGQPASISCRASQSLVHSDGNTYLHWYQQRPGQSPRLLIYRVSNRFSGVPDRFSGSGSGTDFTLKISRVEAEDVGVYYCSQSTHVPPTFGQGTKLEIKT
notes: Humanized L49, IgG1 kappa
EC50 [17]: 1.54 nM
Kd [18]: 4 nM
EC50 [19]: 0.856 nM
EC50 [20]: 2.96 nM
EC50 [21]: 5.31 nM
Kd [22]: 0.6 µg/mL
EC50 [23]: 1.18 nM
EC50 [24]: 21.8 nM
EC50 [25]: 1.1 nM
